Tests used:
Assay in all cases: not read
not read [1] = substrate: CN1CC=C(n2cnc3ccccc32)CC1
Description: (§1) Km against bovine liver Monoamine oxidase B

not read [2] = substrate: CN1CC=C(n2ncc3ccccc32)CC1
Description: as §1

not read [3] = substrate: CN1CC=C(n2cccc2)CC1
Description: as §1

not read [4] = substrate: CN1CC=C(c2ccc[nH]2)CC1
Description: as §1

not read [5] = substrate: CN1CC=C(c2cccn2C)CC1
Description: as §1

not read [6] = substrate: CN1CC=C(c2ccncc2)CC1
Description: as §1

not read [7] = substrate: CN1CC=C(n2nnc3ccccc32)CC1
Description: as §1

not read [8] = substrate: CN1CC=C(n2ccc3ccccc32)CC1
Description: as §1

B1: Amine oxidase [flavin-containing] B (Bos taurus) (protein)
chain: MSSKCDVVVVGGGISGMAAAKLLHDSGLNVIVLEARDRVGGRTYTLRNQKVKYVDLGGSYVGPTQNHILRLSKELGLETYKVNEVERLIHHTKGKSYPFRGSFPSVWNPITYLDHNNLWRTMDDMGREIPSDAPWKAPLAEQWDLMTMKELLDKICWTESSKQLAILFVNLCVTAEIHEVSALWFLWYVKQCGGTTRIFSTSNGGQERKFVGGSGQVSERIMDLLGDRVKLERPVIHIDQTGENVLVETLNHELYEAKYVISAVPPVLGMKIHFNPPLPMMRNQLITRVPLGSVIKSIVYYKEPFWRNMDYCGSMIIEGEEAPVAYALDDTKPDGSYPAIIGFILAHKARKLARLTKEERLKKLCDLYAKVLGSQEALHPVHYEEKNWCEEQYSGGCYTSYFPPGIMTQYGRVLRQPVGRIYFAGTETATHWSGYMEGAVEAGERAAREILHAMGKIPEDEIWLPEPESVDVPAKPITTTFLQRHLPSVPGLLKLIGLTTIFSATALGFLAHKRGLLVRI
Km (not read [1]): 900 µM
kcat (not read [1]): 3.33 s⁻¹
Km (not read [2]): 100 µM
kcat (not read [2]): 2 s⁻¹
Km (not read [3]): 650 µM
kcat (not read [3]): 4.47 s⁻¹
Km (not read [4]): 1800 µM
kcat (not read [4]): 1.42 s⁻¹
Km (not read [5]): 200 µM
kcat (not read [5]): 6 s⁻¹
Km (not read [6]): 2400 µM
kcat (not read [6]): 0.233 s⁻¹
Km (not read [7]): 80 µM
kcat (not read [7]): 0.9 s⁻¹
Km (not read [8]): 110 µM
kcat (not read [8]): 6.9 s⁻¹
